# Reference: patent US20250277027A1 (POPULAS BIOPHARMACEUTICAL WUHAN, published 2025)
# B1: monoclonal antibody 5C12D2C8 (antibody, V domains shown)
# VH: EVQLVESGGDLVKPGGSLKLSCAASGFTFSSGGMSWVRQTPDKRLEWVATISNGGGETYYEDSVKGRFTISRDNAKNTLYLQMNSLKSEDTAMYYCAREEYEGTWYEDVWGAGTTVTVSS
# VL: DVLMTQTPLSLPVSLGDQASISCTSSQSGVHSNGNTELEWYLQKPGQSPKLLIYKVSNRTSGVPDRFSGSGSGTDFTLKISRVEAEDLGVYYCGQGSHVGRTFGGGTKLEIKR
# Columns and labels:
# polypeptide C9797BL020-7 [1] = molecular target: T1, polypeptide C9797BL020-7; experiment: SPR, antibody at 12.5, 25, 50, 100, 200 and 400 nM
# T1 construct: also called antigen peptide
# T1 peptide: CDSVNVDKQPKYEYS
# polypeptide C9797BL020-7 [2] = molecular target: T1, polypeptide C9797BL020-7; experiment: affinity sorting, kinetic fit in RU, antibody as analyte solution
# SCN9A-4-B2M = experiment: SPR, ligand SCN9A-4-B2M, analyte 5C12D2C8, 1:1 binding fit; analyte at 12.5 to 400 nM per paragraph 79
binder,measurement,setting,value
B1,Kd,polypeptide C9797BL020-7 [1],8.78 nM
same,koff,polypeptide C9797BL020-7 [1],0.000247 s⁻¹
same,Kd,polypeptide C9797BL020-7 [2],4.55 nM
same,koff,polypeptide C9797BL020-7 [2],0.00023 s⁻¹
same,kon,polypeptide C9797BL020-7 [2],50600 M⁻¹ s⁻¹
same,kon,SCN9A-4-B2M,28100 M⁻¹ s⁻¹
